Test results taken from publication PMC5428419.

Target: biotinylated sRAGE from transgenic silkworms co-expressing BirA and fed biotin bait (human) (UniProt Q15109)
Assay: SPR; Biacore 2000; biotinylated sRAGE on SA sensor chip via the C-terminal biotin, about 560 RU; F-AGEs 0.25-4 uM injected, single-cycle kinetics, 30 uL/min, 25 C, PBS (-); 1:1 Langmuir model

Chain of UniProt Q15109 (Q15109 23-332): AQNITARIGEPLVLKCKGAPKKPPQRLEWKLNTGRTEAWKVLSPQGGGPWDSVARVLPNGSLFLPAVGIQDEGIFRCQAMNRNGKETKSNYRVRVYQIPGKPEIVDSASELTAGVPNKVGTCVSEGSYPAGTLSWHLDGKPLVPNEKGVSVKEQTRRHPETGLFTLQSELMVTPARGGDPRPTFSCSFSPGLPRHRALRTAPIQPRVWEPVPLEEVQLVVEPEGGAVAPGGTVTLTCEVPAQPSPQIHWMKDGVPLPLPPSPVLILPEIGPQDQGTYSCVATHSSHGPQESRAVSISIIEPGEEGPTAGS

Kd: 725 nM
koff: 0.00165 s⁻¹
kon: 7250 M⁻¹ s⁻¹
Substance: fructose-BSA (fructose-derived AGE-BSA) (from UniProt P02769 25-607) (ligand)
